{"source": "paper PMC6136348", "about": "“In the quest for new targets for pathogen eradication: the adenylosuccinate synthetase from the bacterium Helicobacter pylori” (Journal of Enzyme Inhibition and Medicinal Chemistry, 2018)", "proteins": {"B1": {"name": "Helicobacter pylori adenylosuccinate synthetase (AdSS) (enzyme, Helicobacter pylori (strain ATCC 26695), UniProt P56137 1-411, looked up)", "chain": "MADVVVGIQWGDEGKGKIVDRIAKDYDFVVRYQGGHNAGHTIVHKGVKHSLHLMPSGVLYPKCKNIISSAVVVSVKDLCEEISAFEDLENRLFVSDRAHVILPYHAKKDAFKEKSQNIGTTKKGIGPCYEDKMARSGIRMGDLLDDKILEEKLNAHFKAIEPFKKAYDLGENYEKDLMGYFKTYAPKICPFIKDTTSMLIEANQKGEKILLEGAQGTLLDIDLGTYPFVTSSNTTSASACVSTGLNPKAINEVIGITKAYSTRVGNGPFPSEDTTPMGDHLRTKGAEFGTTTKRPRRCGWLDLVALKYACALNGCTQLALMKLDVLDGIDAIKVCVAYERKGERLEIFPSDLKDCVPIYQTFKGWEKSVGVRKLDDLEPNVREYIRFIEKEVGVKIRLISTSPEREDTIFL", "notes": "Adenylosuccinate synthetase (AdSS, EC 6.3.4.4), product of the purA gene of Helicobacter pylori strain ATCC 26695; amplified from genomic DNA with primers for the 5' and the 3' end of the gene; theoretical monomer mass 45,742.72 Da; Cloned between NdeI and XhoI of pET21b; The printed reverse primer appears to carry a stop codon before the XhoI site, so the vector's C-terminal His tag is probably …"}}, "molecular_target": "the molecule itself", "assay": "SEC; Sephacryl S-200 HR column calibrated with marker proteins; 50 mM phosphate buffer pH 6.5, 150 mM NaCl, 2 mM EDTA, 1 mM DTT, +4 °C; sample loaded at ~15 mg/mL total protein (second step of the purification)", "data": [{"protein": "B1", "values": [{"measurement": "stoichiometry N", "result": 2}]}]}
